One data set in a line: FIG. 3. An excerpt:
Table printed on a drawing sheet, FIG. 3
First reader's note: The sequence is split into one residue per column (positions 4-11 plus one unnumbered column), and SEQ ID 39 is printed twice.

A short description of data set [1]: Simulated Intestinal Fluid (SIF) Stability Assay. Type of data set: in vitro ADME. To be noted: for stability in simulated intestinal fluids (SIF): substitution of Cys with Pen, compared to SEQ ID NO: 46 with Cys. On the procedure: Simulated Intestinal Fluid (SIF) Stability Assay
Studies were carried out in simulated intestinal fluid (SIF) to evaluate gastric stability of the dimer molecules of the instant invention. SIF was prepared by adding 6.8 g of monobasic potassium phosphate and 10.0 g of pancreatin to 1.0 L of water. After dissolution, the pH was adjusted to 6.8 using NaOH. DMSO stocks (2 mM) were first prepared for the test compounds. Aliquots of the DMSO solutions were dosed into 6 individual tubes, each containing 0.5 mL of SIF, which had been pre-warmed to 37° C.
The final test compound concentration was 20 μM. The vials were kept in a benchtop Thermomixer® for the duration of the experiment. At each timepoint (0, 5, 10, 20, 40, and 60 minutes), 1.0 mL of acetonitrile containing 1% formic acid was added to one vial to terminate the reaction. Samples were stored at 4° C. until the end of the experiment. After the final timepoint was sampled, the tubes were mixed and then centrifuged at 3,000 rpm for 10 minutes. Aliquots of the supernatant were removed, diluted 1:1 into distilled water containing internal standard, and analyzed by LCMS/MS. Percent remaining at each timepoint was calculated based on the peak area response ratio of test to compound to internal standard. Time 0 was set to 100%, and all later timepoints were calculated relative to time 0. Half-lives were calculated by fitting to a first-order exponential decay equation using Graphpad. A small sampling of the results of these studies is provided and discussed in connection FIG. 3, above.

Where a SMILES comes first, the peptide text is derived from it. Bridges are numbered along the chain shown (N, C = ends). Where no end group is shown, it is not given here. [ ]: non-standard residue; d: D form. NMeR = CN[C@@H](CCCNC(=N)N)C(=O)O; Pen = CC(C)(S)[C@H](N)C(=O)O

As for “SEQ ID NO: 46: integrin antagonist homodimer of monomer subunit SEQ ID NO: 46 (Cys, N-terminally dimerized); N(alpha)Methylated and non-methylated variations (CRSDTLC; disulfide 1-7; not fully specified (residue 2); also: homodimer linked at N-termini) [listing 1 of 2 here]”, the “SIF Stability (Half-Life, Min)” value in “FIG. 3” amounted to 73 min.

Take `CC(=O)N[C@H]1CSSC[C@@H](C(N)=O)NC(=O)[C@H](CC(C)C)NC(=O)[C@H]([C@@H](C)O)NC(=O)[C@H](CC(=O)O)NC(=O)[C@H](CO)NC(=O)[C@H](CCCNC(=N)N)NC1=O` [compound 39, Ac-C R S D T L C-NH2] (Ac-CRSDTLC-NH2; disulfide 1-7): the “SIF Stability (Half-Life, Min)” value in “FIG. 3” is below 1 min.

Turning to “SEQ ID NO: 55: integrin antagonist homodimer of monomer subunit SEQ ID NO: 55, Cys substituted with Penicillamine (Pen) (C[NMeR]SDTL[Pen][dK]; disulfide 1-7; also: homodimer, link not given here)”, the “stability in simulated intestinal fluids (SIF)” value in data set [1] was “increased stability significantly”.

Regarding “SEQ ID NO: 46: integrin antagonist homodimer of monomer subunit SEQ ID NO: 46 (Cys, N-terminally dimerized); N(alpha)Methylated and non-methylated variations (CRSDTLC; disulfide 1-7; not fully specified (residue 2); also: homodimer linked at N-termini) [listing 2 of 2 here]”, the “half-life in SIF” value in data set [1] (substitution of arginine with N-Me-Arg, N(alpha)Methylated vs non-methylated variation) is “increased half-life substantially”.

“SEQ ID NO: 74: integrin antagonist homodimer of monomer subunit SEQ ID NO: 74, Cys substituted with Penicillamine (Pen) (C[NMeR]SDTL[Pen]E[dK]; disulfide 1-7; also: homodimer, link not given here)”: the “stability in simulated intestinal fluids (SIF)” value in data set [1] is reported as “increased stability significantly”.
